Data: IntAct's records for PubMed 24698088

B1: Serine protease HTRA2, mitochondrial (Homo sapiens), O43464 (parent)
chain: MAAPRAGRGAGWSLRAWRALGGIRWGRRPRLTPDLRALLTSGTSDPRARVTYGTPSLWARLSVGVTEPRACLTSGTPGPRAQLTAVTPDTRTREASENSGTRSRAWLAVALGAGGAVLLLLWGGGRGPPAVLAAVPSPPPASPRSQYNFIADVVEKTAPAVVYIEILDRHPFLGREVPISNGSGFVVAADGLIVTNAHVVADRRRVRVRLLSGDTYEAVVTAVDPVADIATLRIQTKEPLPTLPLGRSADVRQGEFVVAMGSPFALQNTITSGIVSSAQRPARDLGLPQTNVEYIQTDAAIDFGNSGGPLVNLDGEVIGVNTMKVTAGISFAIPSDRLREFLHRGEKKNSSSGISGSQRRYIGVMMLTLSPSILAELQLREPSFPDVQHGVLIHKVILGSPAHRAGLRPGDVILAIGEQMVQNAEDVYEAVRTQSQLAVQIRRGRETLTLYVTPEVTE
partner: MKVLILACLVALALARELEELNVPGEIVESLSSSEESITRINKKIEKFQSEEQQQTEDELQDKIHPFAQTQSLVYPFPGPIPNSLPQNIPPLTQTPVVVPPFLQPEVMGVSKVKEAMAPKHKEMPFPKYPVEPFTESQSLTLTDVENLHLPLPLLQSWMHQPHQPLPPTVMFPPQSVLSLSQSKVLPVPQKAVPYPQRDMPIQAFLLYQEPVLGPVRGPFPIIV

Variants of: B1
Conditions: with casb_bovin CSN2, P02666

Row | effect of a mutation on the interaction | Variant
1 | decreasing interaction | MAAPRAGRGAGWSLRAWRALGGIRWGRRPRLTPDLRALLTSGTSDPRARVTYGTPSLWARLSVGVTEPRACLTSGTPGPRAQLTAVTPDTRTREASENSGTRSRAWLAVALGAGGAVLLLLWGGGRGPPAVLAAVPSPPPASPRSQYNFIADVVEKTAPAVVYIEILDRHPFLGREVPISNGSGFVVAADGLIVTNAHVVADRRRVRVRLLSGDTYEAVVTAVDPVADIATLRIQTKEPLPTLPLGRSADVRQGEFVVAMGSPFALQNTITSGIVSSAQRPARDLGLPQTNVEYIQTDAAIDFGNSGGPLVNLDGEVIGVNTMKVTAGISFAIPSDRLREFLHRGEKKNSSSGISGSQRRYIAVMMLTLSPSILAELQLREPSFPDVQHGVLIHKVILGSPAHRAGLRPGDVILAIGEQMVQNAEDVYEAVRTQSQLAVQIRRGRETLTLYVTPEVTE [G363A]
